# Test results published in publication PMC4218801.
# Biological target: T1, Crp (Mycobacterium smegmatis mc2155) (UniProt A0R5H1)
# T1 sequence: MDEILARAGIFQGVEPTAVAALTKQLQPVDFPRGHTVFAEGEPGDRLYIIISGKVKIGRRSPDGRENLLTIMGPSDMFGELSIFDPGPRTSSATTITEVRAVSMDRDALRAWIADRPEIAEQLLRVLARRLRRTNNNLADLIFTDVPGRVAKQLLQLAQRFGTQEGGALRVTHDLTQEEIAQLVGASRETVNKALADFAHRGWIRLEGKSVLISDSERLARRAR
# Experiment: EMSA
# Settings: Invitrogen EMSA kit binding buffer, 100 fmol (9.3 ng) DNA, 100 uM cAMP, 20 min at room temperature; 8% native PAGE in 0.5x TBE pH 8.3 at 4 C, SYBR green stain
sequence,measurement,value
GGCAGACCGCATCCGCGGCGCGTTCGGTCGCCGCGTCCCGCGCGCGGGAGATCCGTGCGTTTCGGGATGTGATGCCCGTCGCACGACGTGAGCGGCGGTGTGGAGAATCACGGCTCAGCAAAGTTGCATTTGTAAGAGGGCGCGACCAGA (double strand) [ahpC 150-bp wild-type IR1],binding,binds
